Data as given in paper PMC12631010, “5‐Thiohistidine N‐Acetyltransferase from Proteiniphilum Saccharofermentans” (Chembiochem, 2025).

Key:
purified protein [1] = substrate: CC(=O)SCCNC(=O)CCNC(=O)[C@H](O)C(C)(C)COP(=O)(O)OP(=O)(O)OC[C@H]1O[C@@H](n2cnc3c(N)ncnc32)[C@H](O)[C@@H]1OP(=O)(O)O; assay: purified protein; assay type: biochemical, Proteiniphilum saccharofermentans; conditions: 1000 μM 5-thiohistidine; otherwise same
purified protein [2] = substrate: N[C@@H](Cc1[nH]cnc1S)C(=O)O; assay: purified protein; assay type: biochemical, Proteiniphilum saccharofermentans; conditions: 500 μM acetyl-CoA, 0.2 μM enzyme; phosphate pH 8.0, 20 mM NaCl, 2 mM TCEP, 26 °C (buffer and temperature from the activity assay); pH 8.0; 26.0 °C

B1: 5THNAT (Proteiniphilum saccharofermentans) (protein)
chain: MYLVSGSSLFYGWFKKNMDSIKGTVEIYDLDEYNYPKFRGQLIGLYLHAFTTGDYSQHIDRETVEVTLDDILQDGSGCMAFVGNRLVGLLAAFPLKRDPDFPADTCRDIPVGEAIYIAEVMVHADYRGRRIASKMLNTYLQEKSENYSYAVIRVWEKNMPALELYKKLGFLPVATISQQKLSANKEEFVMNKLYLAVKIIDN
notes: recombinant, produced in Escherichia coli, Ni-NTA purified (tag details not in main text)
Protein B1 has a Km (purified protein [1]) of 73 µM and a Km (purified protein [2]) of 58 µM.
